Target: T1, recombinant human cANGPTL4 (C terminal region of angiopoietin-like 4) (human, UniProt Q9BY76 186-406, limits assumed)
T1 construct: domain: c terminal region; Immobilized on the chip in SPR; added at 6 µg/ml to HMVECs in cell assays; also called rh-cANGPTL4; rhcANGPTL4
T1 sequence (looked up): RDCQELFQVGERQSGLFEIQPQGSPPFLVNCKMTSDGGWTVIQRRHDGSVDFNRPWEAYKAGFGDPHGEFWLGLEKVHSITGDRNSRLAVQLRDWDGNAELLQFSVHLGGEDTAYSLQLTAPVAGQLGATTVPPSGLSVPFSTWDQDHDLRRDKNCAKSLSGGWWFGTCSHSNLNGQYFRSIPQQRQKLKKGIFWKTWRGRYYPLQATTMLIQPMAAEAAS
Test: SPR (BIAcore 2000), immobilized cANGPTL4, global fitting
Description: Six concentrations (0.16, 0.32, 0.63, 1.25, 2.50 and 5.0 μM) of recombinant integrin β1, first extracellular domain of VE-cadherin (ECD1), extracellular repeat 1 domain of VE-cadherin (EC1), occludin or JAM-A were used.
Global fitting of the SPR data was performed as previously described to determine the KD. Preinjection or preincubation with the indicated antibodies or preimmune IgG was performed to determine specific interactions. Each sensorgram was corrected by subtracting a sensorgram obtained from a reference flow cell with no immobilized protein. […] Values are mean±S.D. (n=3)

Kd: 58.7 nM
B1: claudin-5 (SPR analyte) (other, UniProt O00501 1-218, looked up)
chain: MGSAALEILGLVLCLVGWGGLILACGLPMWQVTAFLDHNIVTAQTTWKGLWMSCVVQSTGHMQCKVYDSVLALSTEVQAARALTVSAVLLAFVALFVTLAGAQCTTCVAPGPAKARVALTGGVLYLFCGLLALVPLCWFANIVVREFYDPSVPVSQKYELGAALYIGWAATALLMVGGCLLCCGAWVCTGRPDLSFPVKYSAPRRPTATGDYDKKNYV

— patent US20180319878A1 (NANYANG TECHNOLOGICAL UNIVERSITY, published 2018)
